From patent US20120316071A1 (published 2012)

How the values were obtained:
[1] = molecular target: T1, rHuman CD44/Fc Chimera, CF (human, UniProt P16070 21-220); assay: ECL multispot (MSD) assay, antigen spotted on the plate, Fab in solution; blank spot of the same well 298
T1 construct: Bought from R&D Systems; Fc part of the bought chimera not given

[2] = molecular target: T2, rHuman IGF-1 sR, (IGF-1 sR), CF (human, UniProt P08069 31-932); assay: as above
T2 construct: Bought from R&D Systems as a soluble receptor; also called insulin-like growth factor-1 soluble receptor
Method: (§1) An 150 μl aliquot of 1% Bovine Serum Albumin (BSA) in Tris-buffered Saline Tween (TBST) was added to each well and allowed to incubate for 30 min at 20° C. followed by washing and tap drying to completely remove any residual solution. Subsequently, a 12.5 μl aliquot of 1% BSA TBST was added to each well followed by the addition of a 12.5 μl aliquot of a purified Fab. The plate was sealed and incubated for 1 hour at 20° C. with shaking
(§2) TAG-detection antibody at 25 μl was added to each well and allowed to incubate for 1 hour at 20° C. with shaking. Finally, 15 μl of Read Buffer P with Surfactant (Cat # R92PC-1, Meso Scale Discovery) was added to each well. The electrochemiluminescence was measured using a Sector Imager 2400 (Meso Scale Discovery). Data was analyzed by comparing the ECL signals for an antigen to the blank of each well. A signal to blank ratio of 4 or more was considered a “Hit” Fab.

[3] = molecular target: T3, rHuman P-Cadherin/Fc Chimera, CF (human, UniProt P22223 108-654); assay: as above
T3 construct: Bought from R&D Systems; Fc part of the bought chimera not given

[4] = molecular target: T4, rHuman Erythropoietin R/Fc Chimera, CF (human, UniProt P19235 25-250); assay: as above
T4 construct: Bought from R&D Systems; also called EPO R; EPO R/Fc; Fc part of the bought chimera not given
T4 sequence (looked up): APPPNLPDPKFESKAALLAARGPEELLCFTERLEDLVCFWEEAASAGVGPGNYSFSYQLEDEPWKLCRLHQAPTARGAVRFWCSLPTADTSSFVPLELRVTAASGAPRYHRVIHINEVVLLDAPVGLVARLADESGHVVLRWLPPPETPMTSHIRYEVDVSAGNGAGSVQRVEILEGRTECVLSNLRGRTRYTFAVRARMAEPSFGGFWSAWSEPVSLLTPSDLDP

[5] = molecular target: T5, Recombinant Human DLL4 (human, UniProt Q9NR61 27-524); assay: as above
T5 construct: Bought from R&D Systems; also called delta-like protein 4; rHuman DLL4
Method: as §1, §2

[6] = molecular target: T6, rHuman ErbB2/Fc Chimera, CF (human, UniProt P04626 23-652); assay: as above
T6 construct: Bought from R&D Systems; also called human epidermal growth factor 2 receptor; Fc part of the bought chimera not given

[7] = molecular target: T7, rHuman EGF R/Fc Chimera, CF (human, UniProt P00533 25-645); assay: as above
T7 construct: Bought from R&D Systems; also called epidermal growth factor receptor; Fc part of the bought chimera not given

[8] = molecular target: T8, rHuman HGF R/c-MET/Fc Chimera, CF (human, UniProt P08581 25-932); assay: as above
T8 construct: Bought from R&D Systems; also called HGF R/Fc; hepatocyte growth factor receptor; Fc part of the bought chimera not given
T8 sequence (P08581 25-932, change not shown): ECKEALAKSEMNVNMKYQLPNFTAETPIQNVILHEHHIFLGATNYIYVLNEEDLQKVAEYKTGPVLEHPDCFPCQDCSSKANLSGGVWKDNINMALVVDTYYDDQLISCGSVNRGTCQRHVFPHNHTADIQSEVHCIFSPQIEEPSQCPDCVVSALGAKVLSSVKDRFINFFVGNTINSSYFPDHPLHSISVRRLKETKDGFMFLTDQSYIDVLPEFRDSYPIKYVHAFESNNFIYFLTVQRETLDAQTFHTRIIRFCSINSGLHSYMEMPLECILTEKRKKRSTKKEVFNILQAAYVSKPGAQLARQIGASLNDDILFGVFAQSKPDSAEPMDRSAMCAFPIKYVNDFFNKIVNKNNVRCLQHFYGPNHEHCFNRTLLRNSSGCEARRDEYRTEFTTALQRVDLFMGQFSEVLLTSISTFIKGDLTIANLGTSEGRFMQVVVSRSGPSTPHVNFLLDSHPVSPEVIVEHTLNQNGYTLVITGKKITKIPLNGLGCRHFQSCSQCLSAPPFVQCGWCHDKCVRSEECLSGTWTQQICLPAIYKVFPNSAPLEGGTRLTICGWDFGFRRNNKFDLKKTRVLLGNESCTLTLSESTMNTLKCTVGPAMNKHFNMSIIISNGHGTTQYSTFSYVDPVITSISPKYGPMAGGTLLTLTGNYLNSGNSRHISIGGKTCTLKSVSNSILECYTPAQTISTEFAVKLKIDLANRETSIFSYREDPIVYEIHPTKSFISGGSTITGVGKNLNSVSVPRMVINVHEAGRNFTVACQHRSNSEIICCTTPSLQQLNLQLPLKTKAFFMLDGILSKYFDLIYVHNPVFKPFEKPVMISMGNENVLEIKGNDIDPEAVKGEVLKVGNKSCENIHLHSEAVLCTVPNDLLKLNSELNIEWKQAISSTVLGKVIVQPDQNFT

[9] = molecular target: T9, rHuman Notch-1/Fc Chimera, CF (human, UniProt P46531 19-526); assay: as above
T9 construct: Bought from R&D Systems; Fc part of the bought chimera not given

[10] = molecular target: T2, rHuman IGF-1 sR, (IGF-1 sR), CF; assay: ECL multispot (MSD) assay, antigen spotted on the plate, Fab in solution; blank spot of the same well 331
Method: as §1, §2

[11] = molecular target: T4, rHuman Erythropoietin R/Fc Chimera, CF; assay: as above
Method: as §1, §2

[12] = molecular target: T5, Recombinant Human DLL4; assay: as above
Method: as §1, §2

[13] = molecular target: T6, rHuman ErbB2/Fc Chimera, CF; assay: as above
Method: as §1, §2

[14] = molecular target: T7, rHuman EGF R/Fc Chimera, CF; assay: as above
Method: as §1, §2

[15] = molecular target: T9, rHuman Notch-1/Fc Chimera, CF; assay: as above
Method: as §1, §2

[16] = molecular target: T1, rHuman CD44/Fc Chimera, CF; assay: ECL multispot (MSD) assay, antigen spotted on the plate, Fab in solution; blank spot of the same well 407
Method: as §1, §2

[17] = molecular target: T2, rHuman IGF-1 sR, (IGF-1 sR), CF; assay: as above
Method: as §1, §2

[18] = molecular target: T3, rHuman P-Cadherin/Fc Chimera, CF; assay: as above
Method: as §1, §2

[19] = molecular target: T4, rHuman Erythropoietin R/Fc Chimera, CF; assay: as above
Method: as §1, §2

[20] = molecular target: T5, Recombinant Human DLL4; assay: as above
Method: as §1, §2

[21] = molecular target: T6, rHuman ErbB2/Fc Chimera, CF; assay: as above
Method: as §1, §2

[22] = molecular target: T7, rHuman EGF R/Fc Chimera, CF; assay: as above
Method: as §1, §2

[23] = molecular target: T8, rHuman HGF R/c-MET/Fc Chimera, CF; assay: as above
Method: as §1, §2

[24] = molecular target: T9, rHuman Notch-1/Fc Chimera, CF; assay: as above
Method: as §1, §2

[25] = molecular target: T1, rHuman CD44/Fc Chimera, CF; assay: ECL multispot (MSD) assay, antigen spotted on the plate, Fab in solution; blank spot of the same well 284
Method: as §1, §2

[26] = molecular target: T2, rHuman IGF-1 sR, (IGF-1 sR), CF; assay: as above
Method: as §1, §2

[27] = molecular target: T3, rHuman P-Cadherin/Fc Chimera, CF; assay: as above
Method: as §1, §2

[28] = molecular target: T5, Recombinant Human DLL4; assay: as above
Method: as §1, §2

[29] = molecular target: T6, rHuman ErbB2/Fc Chimera, CF; assay: as above
Method: as §1, §2

[30] = molecular target: T7, rHuman EGF R/Fc Chimera, CF; assay: as above
Method: as §1, §2

[31] = molecular target: T8, rHuman HGF R/c-MET/Fc Chimera, CF; assay: as above
Method: as §1, §2

[32] = molecular target: T9, rHuman Notch-1/Fc Chimera, CF; assay: as above
Method: as §1, §2

B1: Fab VH1-46_IGHD6-6*01_IGHJ1*01 S102A/S103P/S104F/H111F (APFF) & L6_IGKJ1*01 S31R (Fab, V domains shown)
VH: QVQLVQSGAEVKKPGASVKVSCKASGYTFTSYYMHWVRQAPGQGLEWMGIINPSGGSTSYAQKFQGRVTMTRDTSTSTVYMELSSLRSEDTAVYYCAREEYAPFSAEYFQFWGQGTLVTVSS
VL: EIVLTQSPATLSLSPGERATLSCRASQSVSRYLAWYQQKPGQAPRLLIYDASNRATGIPARFSGSGSGTDFTLTISSLEPEDFAVYYCQQRSNWPPWTFGQGTKVEIKR
notes: Tested as an E. coli Fab; The heavy chain carries CH1 with His6 and Flag tags from plasmid A, the light chain a kappa CL from plasmid C; also called APFF / S31R; H:APFF & L6_IGKJ1*01 S31R
- ECL signal [1]: 423
- ECL signal [2]: 374
- ECL signal [3]: 270
- ECL signal [4]: 465
- ECL signal [5]: 166000
- ECL signal [6]: 313
- ECL signal [7]: 331
- ECL signal [8]: 261
- ECL signal [9]: 358

B2: Fab VH1-46_IGHD6-6*01_IGHJ1*01 S102A/S103P/S104F/H111F (APFF) & L6_IGKJ1*01 S31E (Fab, V domains shown)
VH: QVQLVQSGAEVKKPGASVKVSCKASGYTFTSYYMHWVRQAPGQGLEWMGIINPSGGSTSYAQKFQGRVTMTRDTSTSTVYMELSSLRSEDTAVYYCAREEYAPFSAEYFQFWGQGTLVTVSS
VL: EIVLTQSPATLSLSPGERATLSCRASQSVSEYLAWYQQKPGQAPRLLIYDASNRATGIPARFSGSGSGTDFTLTISSLEPEDFAVYYCQQRSNWPPWTFGQGTKVEIKR
notes: Tested as an E. coli Fab; The heavy chain carries CH1 with His6 and Flag tags from plasmid A, the light chain a kappa CL from plasmid C; also called APFF / S31E; H:APFF & L6_IGKJ1*01 S31E
- ECL signal [10]: 367
- ECL signal [11]: 441
- ECL signal [12]: 171000
- ECL signal [13]: 313
- ECL signal [14]: 297
- ECL signal [15]: 460

B3: Fab VH1-46_IGHD6-6*01_IGHJ1*01 S102A/S103P/S104F/H111F (APFF) & L6_IGKJ1*01 S31Q (Fab, V domains shown)
VH: QVQLVQSGAEVKKPGASVKVSCKASGYTFTSYYMHWVRQAPGQGLEWMGIINPSGGSTSYAQKFQGRVTMTRDTSTSTVYMELSSLRSEDTAVYYCAREEYAPFSAEYFQFWGQGTLVTVSS
VL: EIVLTQSPATLSLSPGERATLSCRASQSVSQYLAWYQQKPGQAPRLLIYDASNRATGIPARFSGSGSGTDFTLTISSLEPEDFAVYYCQQRSNWPPWTFGQGTKVEIKR
notes: Tested as an E. coli Fab; The heavy chain carries CH1 with His6 and Flag tags from plasmid A, the light chain a kappa CL from plasmid C; also called APFF / S31Q; H:APFF & L6_IGKJ1*01 S31Q
- ECL signal [16]: 438
- ECL signal [17]: 415
- ECL signal [18]: 379
- ECL signal [19]: 548
- ECL signal [20]: 165000
- ECL signal [21]: 392
- ECL signal [22]: 390
- ECL signal [23]: 329
- ECL signal [24]: 383

B4: Fab VH1-46_IGHD6-6*01_IGHJ1*01 S102A/S103P/S104F/H111F (APFF) & L6_IGKJ1*01 S31Y (Fab, V domains shown)
VH: QVQLVQSGAEVKKPGASVKVSCKASGYTFTSYYMHWVRQAPGQGLEWMGIINPSGGSTSYAQKFQGRVTMTRDTSTSTVYMELSSLRSEDTAVYYCAREEYAPFSAEYFQFWGQGTLVTVSS
VL: EIVLTQSPATLSLSPGERATLSCRASQSVSYYLAWYQQKPGQAPRLLIYDASNRATGIPARFSGSGSGTDFTLTISSLEPEDFAVYYCQQRSNWPPWTFGQGTKVEIKR
notes: Tested as an E. coli Fab; The heavy chain carries CH1 with His6 and Flag tags from plasmid A, the light chain a kappa CL from plasmid C; also called APFF / S31Y; H:APFF & L6_IGKJ1*01 S31Y
- ECL signal [25]: 445
- ECL signal [26]: 293
- ECL signal [27]: 361
- ECL signal [28]: 188000
- ECL signal [29]: 236
- ECL signal [30]: 320
- ECL signal [31]: 197
- ECL signal [32]: 351
